The nature of the series: yeast display, Sf9 membrane polyspecificity reagent, FACS + sequencing; frameworks hold sequencing errors. An outline of the steps:
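Galactose-induced (36–48 hours) yeast carrying a synthetic nanobody display library were exposed to 10% biotinylated, detergent-solubilized Sf9 membrane reagent at 4 °C for 1 hour. FACS followed streptavidin microbead enrichment, using low and high (top ~1%) gates for expression (anti-HA) and reagent binding (streptavidin). Colony PCR, MiSeq 2 × 250 sequencing and CDR-length filtering followed. Labels for polyreactivity reflect the gate of origin.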
With “QVQLVESGGGLDQAGGSLRLSCAASGGTFAVYAMGWYRQAPGKERELVAAIDSGGRTNYADSVKGRFTISRANAKNTVYLQMNSLKPEDTAVYYCAADGGGQYVRYDYWGQGTQVTVSS”, the “polyreactivity (PSR sort gate)” value is given as “high polyreactivity”.
With “QVQLVESGGGLVQAGGSLRLSCAASGRIFGTYAMGWYRQAPGKERELVAAITRDGSTNYADSVKGRFTISRDNAKNTVYLQMYSLKTEDSAVYYCAAGYLPDPDDYDSWGQGTQVNVSS”, the “polyreactivity (PSR sort gate)” value was “low polyreactivity”.
The entry for “QVQLVESGGGLVQAGGSLRLSCAASGGMGWYRQAPGKERELVATISSVGSTNYADSVKGRFTISRDNAKNTVYLQRNSLKPEVTAVYYCNATGVQYFLYGYWGQGTQVTVSS” is “low polyreactivity”; for “QVQLVESGGGLVQAGGSLRLSCAASGITFVDYDMGWYRQAPGKERELVAAITTGSSTYYADSVKGRFTISRDNAKNTVYLQMNSLKPEDTAVYYCARVFEYDYYQQWSYGYWGQGTQVTVSS” it is “low polyreactivity”; for “QVQLVESGGGLVQAGGSLRLSCAASGFTLEYYAMGWYRQAPGKERELVASISSGGRTNYADSVKGRFTISRDNAKNTVYLQMNSLKPEDTAVYYCAAEYRSWGRYRYRFNYWGEGTQVTVSS” it is “high polyreactivity”.
On to “QVQLVESGGGLVQAGGSLRLSCAASGRIFQRNAMGWYRQAPGKEREFVAAITKSGGGTYADSVKGRFTISRDNAKNTVYLQMISLKPEDTAVYYCNVVPVWRPYSLINWQKHFGYWGQGTQVTVSS”, for which the “polyreactivity (PSR sort gate)” value is “high polyreactivity”.
As for “QVQLVESGGGLVQAGGSLRLSCAASGRIFVTNAMGWYRQAPGKERELVASISSGGRTHYADSVKGRFTISRDNAKNTVYLQMNSLKPEDTAVYYCAKPPLYYYPALRGEEFYYWGQGTQVTVSS”, the “polyreactivity (PSR sort gate)” value is on record as “low polyreactivity”.
The entry for “QVQLVESGGGLVQAGGRLRFSCAASGFIFRYYAMGCYRQAPGKERELVAAIDYSGGSTNYADSVKGRFTISRDNAKNTVYLQMNSLKPEETAVYYCNAEYTWHRGYDYWGQGTLVTVSS” is “low polyreactivity”; for “QVQLVESGGGLVQAGGSLRLSCAASGNTLRYNVMGWYRQAPGKERELDAAISGGGSTSYADSVKGRFTISRDNAKNTVYLQMNSLKPEDTAVYYCAKRSFVGGRGRDSDYWGQGSQVTVSS” it is “low polyreactivity”; for “QVQLVESGGGLVQAGGSLRISCAASGSIFGYYAMGWYRHSPGTERELVAAISWSDGSTYYADSVKGRFTISRDNAKNTVYLQMNSLKPEDTAVYYCAARFTPYITSDDGHYDYWGQGTQVTVSS” it is “low polyreactivity”.
Consider “QVQLVESGGGLVQAGGSLRLSCAASGLTFSDYAMGWYRQAPGKERELVAAITWRGTSTYYADSVKGRFTISRDNAKNTVYLQMNSLKPEDTAVYYCAARKYTGSGTRYYYWGQGTQVTVSS”, for which the “polyreactivity (PSR sort gate)” value is “high polyreactivity”.
The entry for “QVQLVESGGGLVQAGGSLRLSCAASGRTFPGYAMGWYRQAPGKERELVATITGNGGSTYYADSVKGRFTISRDNAKNTVYLQMNSLKPDDTAVYYCAAGRRRPYVRAYSGTDYWGQGTQVTVSS” is “low polyreactivity”.
“QVQLVESGGGLVQAGGSLRLSCAASGSTFSSYAMGWYRQAPGKDRELVAAISSRGGRTYYADSVKGRFTISRDNAKNTVYLQMNSLKPEDTAVYYCNAPTSALRQGKDYGYWGQGTQVTVSS”: the “polyreactivity (PSR sort gate)” value was “high polyreactivity”.
To “QVQLVESGGGLVQAGGSLRLSCAASGSIFGGYAMGWYRQAPGKERELVAAITSGGGSTYYADSVKGRFTISRDNAKNTVYLQMNSLKPEDTAVYYCAALQSHGVDYDYWGQGTQVTVSS” belongs “low polyreactivity”.
The entry for “QVQLVESGGGIVQAGGSLRLSCAASGYTIDSYGMGWYRQAPGKERELVAAIDWSGGSTYYADSVKGRFTISRDNAKNTVYLQMNSLKPEDTAVYYCAARRGLRLFAYRHGYWGQGTQVTVSS” is “low polyreactivity”.
For “QVQLEESGGGLVQAGGSLRLSCAASGLTISWNAMGWYRQAPGKERELVAAISSRGGSTYYADSVKARFKISRDNAKNTVYLQMNSLKPEETAVYYCAAEGYTYYPVYSTRMYYWGQGTQVTVLS”, the “polyreactivity (PSR sort gate)” value is given as “low polyreactivity”.
The entry for “QVQLVESGGGLVQAGGSLRLICAASGRSFTSNAMGWYRQAAGKEWELVAAINFRGDSTYYADSVKGRFTISRDNAKNTVYLQMNSLKREDTAVYYCAAVGGRSSYRLDYWGQGTQVTVSS” is “low polyreactivity”; for “QVQLVESGGGLVQAGGSLRLSCAASGFIFGYNAMGWYRQAPGIERELVAAITASGGSTYYADSVKGRFTISLDNAKNTVYLQLNSLIPEDTAVYYCATVLRKNGERGNRLYYWGQGTQVTVSS” it is “high polyreactivity”; for “QVQLVESGGGLVKAGGSLRLSCAASGFTFTIYAMGWYRQAPGKERELVAAITNSGDTNYADSVKGRFTISRDNAKNTVYLQMNSLKPEDTAVYYCAKAYYIGYFFNFGSWGQGTQVTVSS” it is “low polyreactivity”.
To “QVQLVESGGGLVQAGGSLRLSCAASGSTFAYYAMGWYRQAPGKERELVAAISYSGGITYYADSVKGRFTISRDNAKNTVYLQMNSLKPEDTAVYYCNKLFAQEFDYWGQGTQVTVSS” belongs “high polyreactivity”; to “QVQLVESGGGLVQAGGSLRLSCAASGRIFGVYAMGWYRQAPGKERELVASITGSGGRTYYADSVKGRFTISRDNAKNTVYLQMNSLKPEDTAVYYCAAKWGTRLAQQKSYGYWGQGTQVTVSS”, “high polyreactivity”; to “QVQLVESGGGLVQAGGSLRLSSAASGFTFRRYAMGWYRQAPGKERELVAAITNSAGSTYYSDSVKGRFTISRDNAKNTVYLQKNSLKPEDTAVYYCVALRSAGAYDYWGQGTQVTVSS”, “low polyreactivity”.
To “QVQLVESGGGLVQAGGSLRLSCAASGGIFVANAMGWYRQAPGKERELVAAISRSGGSTYYADSVKGRFTISRDNAKNTVYLQMNSLKPEDTAVYYCAAKSRRQYTVGLTSDYWGQGTQVTVSS” belongs “high polyreactivity”.
In the case of “QVQLVESGGGLVQAGGSLRLSSAASGFTFLYNAMGWYRQAPGKERELVASIRTGTGTYYADSVKGRFTISRDNAKNNVYLQMISLKPEDTAVYYCAADYRYKSQWWYRRFDYWGQGTQVNVSS”, the “polyreactivity (PSR sort gate)” value is “high polyreactivity”.
To “QVQLVESGGGLVQAGGSLRLSCAASGYIFYDNAMGWYRQAPGKERELVAAISRSGSRTRYADSVKGRFTISRDNAKNTVYLQMNSLKPEDTAVYYCNTRYAKYYYWGQGTQVTVSS” belongs “high polyreactivity”.
Consider “QLQLVESGGGLVQAGGSLRLSCAASGRIFRGYAMGWYRQAPGKERELVAAISGSGGSTYYADSVKGRFTISRDNAKNSVYLQMNSLKPEDTAVYYCAAEGRNYYGSYDYWGQGTQVTVSS”, for which the “polyreactivity (PSR sort gate)” value is listed as “low polyreactivity”.
For the sequence “QVQLVESGGGLVQAGGSLRLSCDASGITFYRYAMGWYRQAPGKERELVAAITSGDTTYYADSVKGRFTISRDNAKNTVYLQMNSLKPEDTADYYCAAVAGYRVVRTRELGYWGQGTQVTVSS”, the “polyreactivity (PSR sort gate)” value is given as “high polyreactivity”.
The entry for “QVQLVESGGGLVQAGGRLRLRCAASGHIFYYYTLGWYRQAPGKERELVAGITIGGSTNYADSVKGRFTISRDNAKNTVYLQMNSLKPEDTAVYYCNVVKYVYIYSYWEYYYWGQGTQVTVSS” is “low polyreactivity”; for “QVQLVESAGGLVQAGGSLRLSCAASGSTLYPYDMGWYRQAPGKERELVAAIDSGGSTNYADSVKGRFTISRDNAKNTVYLQMNSLKPEDTAVYYCAADASGENDYWGQGTQVTVSS” it is “low polyreactivity”; for “QVQLVESGGGLVQAGGSLRLSCAASGSIYWLYAMGWYRQAPGKERELVAAITWSGGRTYYADSVKGRFTISRDNAKYNVYLQMNSLKPEDTAVYYCARRQRPGYSNPARGGKYDYWGQGTQVTVSS” it is “low polyreactivity”.
For the sequence “QVQLVESGGGLVQAGGSLRLSCAASGRIFGSYTMGWYRQAPGKERELVAAISFSGARTRYADSVKGRFTISRDNANNTVYLQMNSLKPEDTAVYYCAARFTGGKYDYWGQGTQVTVSS”, the “polyreactivity (PSR sort gate)” value is given as “high polyreactivity”.
The entry for “QVQLVESGGGLVQAGGSLRLSCAASGSILIYNAMGWYRQARGKERELVAAISTSGGSTYYADSVKGRFTISRDTAKNTVYLQMNSLKPEDTAVYYCAARAYPYGYWGQGTQVTVSS” is “low polyreactivity”; for “QVQLVESGGGLVQAGGSLRLSCAASGSTFVSYALGWYRQAPGKERDLVAAISRSGGSTYYADSVKGRFTISRDNAKNTVYVQMNRLKPEDTAVFYCAADCRGPSKRNRDYWGQGTEVTVSS” it is “high polyreactivity”; for “QVQLVESGGGLVQAGGSLRLSCAASGSIFNSNAMGWYRQAPGKERELVAVISWSDGSTRYADSVKGRFTISRDNAKNTVYLQMNSLKPEDTAVYYCNADLVYYYRQEVDYWGQGTEVTVSS” it is “low polyreactivity”.
To “QVQLVESGGGLVQAGGSLRLSCAASGRIFRVYAMGWYRQAPGKETELVAAISRTGGSTYYADSVKGRFTISRDNAKNTVYLQMNSLKPEDTAVYYCAALVNGNFPTVDYWGQGTQVTVSS” belongs “high polyreactivity”; to “QVQLVDSGGGLVQAGGSLRLSCAASGSILGQNAMGGNRQAPGKERELVAAITRGGSSTYYADSVKGRFTISRDNAKNTVYLQMNSLKPEDTAVYYCAAYSSIGYRQISGYYWGEGTQVTVSS”, “low polyreactivity”; to “QVQLVESGGGLVQAGGSLRLSCAASGSIFPDNAMGWYRQAPGKERELVAAISLSGGRTYYADSVKGRFTISRDNAKNTVYLQMNSLKPEDTAVYYCAAKQRPKSYGPGHYYWGQGTQVTVSS”, “high polyreactivity”.
Take “QVQLVESGGGIDQAGGSLRLSCAASGGTFFSNAMGWYRQAPGKERELVAGITSGGRTYYADSVKGRFTISRDNAKNTVYLQMNSLKPEDTAVDYCATRSRRTYYYYGAEGYWGQGTQVTVSS”: the “polyreactivity (PSR sort gate)” value is “high polyreactivity”.
The entry for “QVQLVESGGGLVQAGGSLRLSCAASGRTFDGYTLGGYRQAPGKERELVAAISTGGGSTYYADSVKGRFTISRDNAKNTVYVQLNSLKPEDTAVYDCAARGGSYSFRRYNYWGQGTQVTVSS” is “high polyreactivity”; for “QVQLVESGGGLVQAGGSLRLSCAASGAIFFSYAMGWYRQAPGKERELVAAIRTNGGTTYYADSVKGRFTISRDNAKNTVYLQMNSLKPEDTAVYYCAALPGGYYDRGEYDYWGQGTQVTVSS” it is “low polyreactivity”; for “QVQLVESGGGLVQAGGSLRLSCAASGSTFIHNAMGWYRQAPRKERELVAAITSGGSTYYADSVKGRFTISRDNAKNTVYLQMNSLKPEDTAVYYCNRGSWRYSTMEYWGQGTQVTVSS” it is “high polyreactivity”.

Values taken from the nanobody polyreactivity screen of Harvey et al. (2022).
